Laboratory results as given in patent publication US20240327534A1 (HARPOON THERAPEUTICS, published 2024).
Changes are numbered by the printed parent chain.

T1: human BCMA on BCMA expressing cell lines (human, UniProt Q02223 1-184)
T1 sequence: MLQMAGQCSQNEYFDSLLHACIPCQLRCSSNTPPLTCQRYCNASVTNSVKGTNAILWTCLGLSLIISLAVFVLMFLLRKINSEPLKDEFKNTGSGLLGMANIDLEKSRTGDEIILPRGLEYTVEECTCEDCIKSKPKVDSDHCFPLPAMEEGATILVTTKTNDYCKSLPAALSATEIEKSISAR

T2: human BCMA protein (human, UniProt Q02223 1-54, limits assumed)
T2 sequence: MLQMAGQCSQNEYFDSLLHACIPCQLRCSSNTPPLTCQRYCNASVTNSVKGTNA

B1: BCMA targeting trispecific protein 253BH10 (other, not shown: large carriers; small tags and cut ends)
VHH: QVQLVESGGGLVQPGESLRLSCAASTNIFSISPMGWYRQAPGKQRELVAAIHGFSTLYADSVKGRFTISRDNAKNTIYLQMNSLKPEDTAVYYCNKVPWGDYHPRNVYWGQGTQVTVSS
notes: trispecific; described as a molecule with the parental CDRs; also called BH253
B2: BCMA targeting trispecific protein 01C04 (other)
VHH: B1 VHH with Q1E, E16R, R19T, F29P, F54D, T76S, K85R, V91L
notes: trispecific; not shown: anti-albumin domain, anti-CD3 domain and the linkers of the trispecific (TriTAC) chain; the C-terminal 6xHis tag follows these missing domains and is left out
B3: BCMA targeting trispecific protein 01H06 (other, not shown: large carriers; small tags and cut ends)
VHH: B1 VHH with Q1E, E16R, R19T, N27S, I28D, S55E, T76S, K85R, V91L, R105G
B4: BCMA targeting trispecific protein 01E10 (other)
VHH: B1 VHH with Q1E, E16R, R19T, F29E, F54K, T76S, K85R, V91L, N106R
notes: trispecific; not shown: the C-terminal 6xHis tag follows those domains and is left out
B5: BCMA targeting trispecific protein 01B12 (other, not shown: large carriers; small tags and cut ends)
VHH: B1 VHH with Q1E, E16R, R19T, I31T, S55Q, T76S, K85R, V91L, Y108V
notes: trispecific
B6: BCMA targeting trispecific protein 01A04 (other, not shown: large carriers; small tags and cut ends)
VHH: B1 VHH with Q1E, E16R, R19T, S30M, F54D, T76S, K85R, V91L, D101R
notes: trispecific
B7: BCMA targeting trispecific protein 01F02 (other)
VHH: B1 VHH with Q1E, E16R, R19T, I31H, F54T, T76S, K85R, V91L, D101R
notes: trispecific; not shown: anti-albumin domain, anti-CD3 domain and the linkers of the trispecific; the C-terminal His6 that follows them is left out
B8: BCMA targeting trispecific protein 01D05 (other)
VHH: B1 VHH with Q1E, E16R, R19T, I31D, F54T, T76S, K85R, V91L
notes: as for B2
B9: BCMA targeting trispecific protein 01E04 (other, not shown: large carriers; small tags and cut ends)
VHH: B1 VHH with Q1E, E16R, R19T, F29A, F54T, T76S, K85R, V91L, R105G
notes: trispecific
B10: BCMA targeting trispecific protein 01C07 (other, not shown: large carriers; small tags and cut ends)
VHH: B1 VHH with Q1E, E16R, R19T, S32Y, L57Y, T76S, K85R, V91L, D101S
notes: trispecific
B11: BCMA targeting trispecific protein 01D06 (other)
VHH: B1 VHH with Q1E, E16R, R19T, I31R, F54D, T76S, K85R, V91L, Y108T
notes: trispecific; not shown: anti-albumin domain, anti-CD3 domain and the linkers of the trispecific (TriTAC) format
B12: BCMA targeting trispecific protein 01B08 (other, not shown: large carriers; small tags and cut ends)
VHH: B1 VHH with Q1E, E16R, R19T, F29E, F54S, T76S, K85R, V91L, D101R
notes: trispecific
B13: BCMA targeting trispecific protein 01B01 (other, not shown: large carriers; small tags and cut ends)
VHH: B1 VHH with Q1E, E16R, R19T, F29P, F54E, T76S, K85R, V91L, Y108A
notes: trispecific
B14: BCMA targeting trispecific protein 01B07 (other, not shown: large carriers; small tags and cut ends)
VHH: B1 VHH with Q1E, E16R, R19T, I31R, F54N, T76S, K85R, V91L, D101I
notes: trispecific
B15: BCMA targeting trispecific protein 01B05 (other, not shown: large carriers; small tags and cut ends)
VHH: B1 VHH with Q1E, E16R, R19T, F29T, S55E, T76S, K85R, V91L, R105G
notes: trispecific
B16: BCMA targeting trispecific protein 01B02 (other)
VHH: B1 VHH with Q1E, E16R, R19T, F29T, H52S, T76S, K85R, V91L, K96E
notes: as for B7
B17: BCMA targeting trispecific protein 01A06 (other)
VHH: B1 VHH with Q1E, E16R, R19T, S32R, L57V, T76S, K85R, V91L
notes: trispecific; not shown: the C-terminal 6xHis tag follows those missing domains and is left out
B18: BCMA targeting trispecific protein 01B04 (other)
VHH: B1 VHH with Q1E, E16R, R19T, I28D, F54K, T76S, K85R, V91L, Y108K
notes: as for B2
B19: BCMA targeting trispecific protein 01A03 (other, not shown: large carriers; small tags and cut ends)
VHH: B1 VHH with Q1E, E16R, R19T, M34G, F54S, T76S, K85R, V91L
notes: trispecific
B20: BCMA targeting trispecific protein 01D07 (other, not shown: large carriers; small tags and cut ends)
VHH: B1 VHH with Q1E, E16R, R19T, I31A, F54S, T76S, K85R, V91L, Y108N
notes: trispecific
B21: BCMA targeting trispecific protein 01C05 (other, not shown: large carriers; small tags and cut ends)
VHH: B1 VHH with Q1E, E16R, R19T, I31S, S55K, T76S, K85R, V91R, R105G
notes: trispecific
B22: BCMA targeting trispecific protein 01E06 (other, not shown: large carriers; small tags and cut ends)
VHH: B1 VHH with Q1E, E16R, R19T, I31L, F54D, T76S, K85R, V91L
notes: trispecific
B23: BCMA targeting trispecific protein 01C01 (other, not shown: large carriers; small tags and cut ends)
VHH: B1 VHH with Q1E, E16R, R19T, F29V, F54H, T76S, K85R, V91L, R105G
notes: trispecific
B24: BCMA targeting trispecific protein 01A07 (other)
VHH: B1 VHH with Q1E, E16R, R19T, F29S, F54T, T76S, K85R, V91L, R105G
notes: trispecific; not shown: the C-terminal His6 follows those missing domains and is left out
B25: BCMA targeting trispecific protein 01E03 (other, not shown: large carriers; small tags and cut ends)
VHH: B1 VHH with Q1E, E16R, R19T, F29T, F54D, T76S, K85R, V91L, R105G
notes: trispecific
B26: BCMA targeting trispecific protein 01D03 (other)
VHH: B1 VHH with Q1E, E16R, R19T, I31N, F54D, T76S, K85R, V91L, Y108R
notes: as for B11
B27: BCMA targeting trispecific protein 01B03 (other, not shown: large carriers; small tags and cut ends)
VHH: B1 VHH with Q1E, E16R, R19T, I31K, F54K, T76S, K85R, V91L, Y108V
notes: trispecific
B28: BCMA targeting trispecific protein 01A05 (other)
VHH: B1 VHH with Q1E, E16R, R19T, I31S, T76S, K85R, V91L
notes: as for B11
B29: BCMA targeting trispecific protein 01E07 (other)
VHH: B1 VHH with Q1E, E16R, R19T, F29P, F54Q, T76S, K85R, V91L, Y108Q
notes: as for B2
B30: BCMA targeting trispecific protein 01C06 (other, not shown: large carriers; small tags and cut ends)
VHH: B1 VHH with Q1E, E16R, R19T, F54D, T76S, K85R, V91L, D101K
notes: trispecific
B31: BCMA targeting trispecific protein 01D10 (other)
VHH: B1 VHH with Q1E, E16R, R19T, I31A, F54S, T76S, K85R, V91L, D101R
notes: as for B7
B32: BCMA targeting trispecific protein 01C10 (other, not shown: large carriers; small tags and cut ends)
VHH: B1 VHH with Q1E, E16R, R19T, F29S, T76S, K85R, V91L, D101Y
notes: trispecific
B33: BCMA targeting trispecific protein 01D02 (other)
VHH: B1 VHH with Q1E, E16R, R19T, F29V, F54K, T76S, K85R, V91L, R105G
notes: as for B24
B34: BCMA targeting trispecific protein 01D04 (other)
VHH: B1 VHH with Q1E, E16R, R19T, F29T, F54V, T76S, K85R, V91L, Y108Q
notes: as for B2
B35: BCMA targeting trispecific protein 01E08 (other, not shown: large carriers; small tags and cut ends)
VHH: B1 VHH with Q1E, E16R, R19T, I31Q, F54D, T76S, K85R, V91L, R105G, Y108C
notes: trispecific
B36: BCMA targeting trispecific protein 01A08 (other, not shown: large carriers; small tags and cut ends)
VHH: B1 VHH with Q1E, E16R, R19T, I31S, F54E, T76S, K85R, V91L, N106K
notes: trispecific
B37: BCMA targeting trispecific protein 01E05 (other)
VHH: B1 VHH with Q1E, E16R, R19T, I31R, F54T, T76S, K85R, V91L, D101K
notes: as for B17
B38: BCMA targeting trispecific protein 01B09 (other, not shown: large carriers; small tags and cut ends)
VHH: B1 VHH with Q1E, E16R, R19T, T26S, F54S, T76S, K85R, V91L, R105G
notes: trispecific
B39: BCMA targeting trispecific protein 01B06 (other)
VHH: B1 VHH with Q1E, E16R, R19T, F54D, T76S, K85R, V91L, D101E
notes: as for B17
B40: BCMA targeting trispecific protein 01C02 (other)
VHH: B1 VHH with Q1E, E16R, R19T, F29E, F54N, T76S, K85R, V91L, D101R
notes: trispecific; not shown: The C-terminal 6xHis tag is left out because it follows these missing domains
B41: BCMA targeting trispecific protein 01C08 (other, not shown: large carriers; small tags and cut ends)
VHH: B1 VHH with Q1E, E16R, R19T, I31N, F54G, T76S, K85R, V91L, Y108H
notes: trispecific
B42: BCMA targeting trispecific protein 01A02 (other, not shown: large carriers; small tags and cut ends)
VHH: B1 VHH with Q1E, E16R, R19T, I31S, H52N, T76S, K85R, V91L, Y108H
notes: trispecific
B43: BCMA targeting trispecific protein 01A09 (other, not shown: large carriers; small tags and cut ends)
VHH: B1 VHH with Q1E, E16R, R19T, S32T, F54R, T76S, K85R, V91L, D101S
notes: trispecific
B44: BCMA targeting trispecific protein 01A01 (other, not shown: large carriers; small tags and cut ends)
VHH: B1 VHH with Q1E, E16R, R19T, N27D, F54G, T76S, K85R, V91L, Y108A
notes: trispecific

target: T1, human BCMA on BCMA expressing cell lines; experiment: cell-based or functional assay

| Binder | TDCC EC50 (EJM cells) |
| --- | --- |
| B1 | 0.0529 nM |
| B2 | 0.0175 nM |
| B3 | 0.001 nM |
| B4 | 0.0623 nM |
| B5 | 0.0273 nM |
| B6 | 0.159 nM |
| B7 | 0.225 nM |
| B8 | 0.0166 nM |
| B9 | 0.00267 nM |
| B10 | 0.0833 nM |
| B11 | 0.0135 nM |
| B12 | 0.0876 nM |
| B13 | 0.0195 nM |
| B14 | 0.174 nM |
| B15 | 0.00301 nM |
| B16 | 0.359 nM |
| B17 | 0.011 nM |
| B18 | 0.0161 nM |
| B19 | 0.0461 nM |
| B20 | 0.0196 nM |
| B21 | 0.00307 nM |
| B22 | 0.00377 nM |

| Binder | TDCC EC50 (EJM cells) |
| --- | --- |
| B23 | 0.00133 nM |
| B24 | 0.00249 nM |
| B25 | 0.00298 nM |
| B26 | 0.0149 nM |
| B27 | 0.0964 nM |
| B28 | 0.0151 nM |
| B29 | 0.0192 nM |
| B30 | 0.0251 nM |
| B31 | 0.453 nM |
| B32 | 0.208 nM |
| B33 | 0.00225 nM |
| B34 | 0.016 nM |
| B35 | 0.0015 nM |
| B36 | 0.00425 nM |
| B37 | 0.0108 nM |
| B38 | 0.00527 nM |
| B39 | 0.00697 nM |
| B40 | 0.0373 nM |
| B41 | 0.0457 nM |
| B42 | 0.0218 nM |
| B43 | 0.0484 nM |
| B44 | 0.0264 nM |

target: T2, human BCMA protein; experiment: affinity to human BCMA protein, method not stated

| Binder | Kd |
| --- | --- |
| B1 | 27.7 nM |
| B2 | 21.6 nM |
| B4 | 18.5 nM |
| B5 | 20.7 nM |
| B6 | 37.5 nM |
| B7 | 41.3 nM |
| B8 | 17.8 nM |
| B9 | 7.29 nM |
| B10 | 19.8 nM |
| B11 | 14.9 nM |
| B12 | 25.6 nM |
| B13 | 19.9 nM |
| B14 | 43.9 nM |
| B15 | 6.52 nM |
| B16 | 18.8 nM |
| B17 | 15.8 nM |
| B18 | 18.6 nM |
| B19 | 30.8 nM |
| B20 | 19.3 nM |
| B21 | 6.09 nM |
| B22 | 8.91 nM |
| B23 | 6.52 nM |

| Binder | Kd |
| --- | --- |
| B24 | 6.95 nM |
| B25 | 6.36 nM |
| B26 | 20.9 nM |
| B27 | 26.2 nM |
| B28 | 17 nM |
| B29 | 19.9 nM |
| B30 | 18.8 nM |
| B31 | 53.9 nM |
| B32 | 46.4 nM |
| B33 | 7.35 nM |
| B34 | 18.9 nM |
| B35 | 5.56 nM |
| B36 | 11.7 nM |
| B37 | 11.7 nM |
| B38 | 11.2 nM |
| B39 | 9.1 nM |
| B40 | 20 nM |
| B41 | 28.3 nM |
| B42 | 21.5 nM |
| B43 | 23.9 nM |
| B44 | 21.3 nM |
